In article PMC9772228, “Structure of a RecT/Redβ family recombinase in complex with a duplex intermediate of DNA annealing”:

Tests used:
Test in all cases: EMSA; little to no detectable; EMSA: PBS pH 7.4 (or KH2PO4/10 mM MgCl2 pH 6.0), 3.6 or 5 uM protein, 25 uM nt DNA, 37 C 15 min per strand, 0.8% agarose 1x TBE; cryo-EM: 20 mM KH2PO4 (Results: 10 mM), 10 mM MgCl2 pH 6.0, 37 C; native MS: 100 mM ammonium acetate pH 7, 37 C
Details in all cases: protein: recombinant, tags: N-terminal 6His vector tag (20 aa) retained, chain copies: 10
LiRecT R210A/K215A = target: T1, LiRecT R210A/K215A (Listeria innocua CLIP 11262, UniProt Q92FL9 1-271, R210A;K215A)
T1 sequence: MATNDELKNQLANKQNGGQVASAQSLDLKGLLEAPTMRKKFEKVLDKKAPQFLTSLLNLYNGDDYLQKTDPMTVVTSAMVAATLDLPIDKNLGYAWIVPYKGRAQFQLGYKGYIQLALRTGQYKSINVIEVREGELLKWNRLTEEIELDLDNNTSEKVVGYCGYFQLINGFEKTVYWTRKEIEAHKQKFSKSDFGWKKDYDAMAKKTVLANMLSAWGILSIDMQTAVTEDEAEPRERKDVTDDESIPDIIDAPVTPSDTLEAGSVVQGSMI

LiRecT K111A/K215A = target: T2, LiRecT K111A/K215A (Listeria innocua CLIP 11262, UniProt Q92FL9 1-271, K111A;K215A)
T2 sequence: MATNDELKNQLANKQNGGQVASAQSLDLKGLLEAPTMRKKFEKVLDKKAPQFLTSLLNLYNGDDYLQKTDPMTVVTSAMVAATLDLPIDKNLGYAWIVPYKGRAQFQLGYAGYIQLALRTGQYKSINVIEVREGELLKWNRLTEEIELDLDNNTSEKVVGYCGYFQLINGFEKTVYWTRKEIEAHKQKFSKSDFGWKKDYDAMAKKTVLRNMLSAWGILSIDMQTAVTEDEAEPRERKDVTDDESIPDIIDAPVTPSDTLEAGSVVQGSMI

LiRecT K206A/K215A = target: T3, LiRecT K206A/K215A (Listeria innocua CLIP 11262, UniProt Q92FL9 1-271, K206A;K215A)
T3 sequence: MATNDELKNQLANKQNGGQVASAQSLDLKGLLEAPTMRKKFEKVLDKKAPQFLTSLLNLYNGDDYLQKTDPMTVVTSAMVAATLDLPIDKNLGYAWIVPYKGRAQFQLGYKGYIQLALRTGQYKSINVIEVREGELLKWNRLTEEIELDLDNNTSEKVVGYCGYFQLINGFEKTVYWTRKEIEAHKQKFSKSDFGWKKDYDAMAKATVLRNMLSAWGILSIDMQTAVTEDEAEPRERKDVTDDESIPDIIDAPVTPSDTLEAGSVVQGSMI

LiRecT K206E = target: T4, LiRecT K206E (Listeria innocua CLIP 11262, UniProt Q92FL9 1-271, K206E)
T4 sequence: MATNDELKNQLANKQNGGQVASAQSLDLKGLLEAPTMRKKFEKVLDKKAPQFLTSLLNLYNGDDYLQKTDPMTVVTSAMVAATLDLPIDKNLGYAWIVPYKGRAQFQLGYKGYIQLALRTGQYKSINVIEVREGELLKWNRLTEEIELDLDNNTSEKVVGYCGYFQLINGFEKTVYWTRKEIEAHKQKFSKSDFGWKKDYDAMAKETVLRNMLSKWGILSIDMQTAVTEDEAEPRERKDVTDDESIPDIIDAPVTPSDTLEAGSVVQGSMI

LiRecT K206A/R210A = target: T5, LiRecT K206A/R210A (Listeria innocua CLIP 11262, UniProt Q92FL9 1-271, K206A;R210A)
T5 sequence: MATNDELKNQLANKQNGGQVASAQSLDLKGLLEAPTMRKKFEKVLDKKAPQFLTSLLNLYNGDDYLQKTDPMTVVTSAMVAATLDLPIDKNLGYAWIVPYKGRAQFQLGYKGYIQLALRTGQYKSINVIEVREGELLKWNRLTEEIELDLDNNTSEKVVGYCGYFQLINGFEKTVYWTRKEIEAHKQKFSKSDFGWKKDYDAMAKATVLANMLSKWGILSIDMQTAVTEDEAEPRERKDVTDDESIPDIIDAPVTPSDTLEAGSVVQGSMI

[1] = label: 5'-Cy3;5'-Cy5, 49 bp, 1 nt 5' overhang at each end

Measured: binding result

CCATCCGCAAAAATCGAGCTATGCAGGGCGATTCTGCTCTAAGCCATCCG (ssDNA) [Cy5-50mer]
no binding: LiRecT R210A/K215A; label: 5'-Cy5, single strand | LiRecT K111A/K215A; label: 5'-Cy5, single strand | LiRecT K206A/K215A; label: 5'-Cy5, single strand | LiRecT K206E; label: 5'-Cy5, single strand | LiRecT K206A/R210A; label: 5'-Cy5, single strand

B1: 50-mer duplex intermediate (sequential addition) (dsDNA)
DNA 1: GCGGATGGCTTAGAGCAGAATCGCCCTGCATAGCTCGATTTTTGCGGATG
DNA 2: CCATCCGCAAAAATCGAGCTATGCAGGGCGATTCTGCTCTAAGCCATCCG
no binding: LiRecT R210A/K215A; [1] | LiRecT K111A/K215A; [1] | LiRecT K206A/K215A; [1] | LiRecT K206E; [1] | LiRecT K206A/R210A; [1]

GCGGATGGCTTAGAGCAGAATCGCCCTGCATAGCTCGATTTTTGCGGATG (ssDNA) [Cy3-50mer]
no binding: LiRecT R210A/K215A; label: 5'-Cy3, single strand | LiRecT K111A/K215A; label: 5'-Cy3, single strand | LiRecT K206A/K215A; label: 5'-Cy3, single strand | LiRecT K206E; label: 5'-Cy3, single strand | LiRecT K206A/R210A; label: 5'-Cy3, single strand
